Data from patent publication US20170369523A1, “TEMPLATE-FIXED BETA-HAIRPIN PEPTIDOMIMETICS THAT ARE LIGANDS FOR G-PROTEIN-COUPLED RECEPTORS (GPCRS) AND ARE MODULATORS OF TRANSCRIPTION FACTORS AND COACTIVATORS” (POLYPHOR AG, priority 2008, published 2017).
Numbered stars: 1 amine (or outer) side, 2 acyl side, 3 side chain; on linkers, the order of the positions; unused ones are H or OH. Square brackets hold non-standard residues; d marks the D form. Glu(cHx) = L-glutamic acid cyclohexyl ester, O=C(CC[C@H](N[*:1])C(=O)[*:2])OC1CCCCC1; Trp(6-Cl) = N[C@@H](Cc1c[nH]c2cc(Cl)ccc12)C(=O)O; Hyp = O=C(O)[C@@H]1C[C@@H](O)CN1

T1: NCoA-1 (UniProt Q15788 257-385, limits assumed)
T1 construct: also called SRC-1
T1 sequence (looked up): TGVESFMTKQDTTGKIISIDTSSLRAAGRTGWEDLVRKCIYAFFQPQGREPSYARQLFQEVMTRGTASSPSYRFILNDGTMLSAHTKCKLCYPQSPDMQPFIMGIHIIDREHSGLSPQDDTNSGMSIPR

B1: Ex. 14 (peptide)
peptide: cyclo(FA[Trp(6-Cl)]LDWEF[dP]P)
SMILES: CC(C)C[C@@H]1NC(=O)[C@H](Cc2c[nH]c3cc(Cl)ccc23)NC(=O)[C@H](C)NC(=O)[C@H](Cc2ccccc2)NC(=O)[C@@H]2CCCN2C(=O)[C@H]2CCCN2C(=O)[C@H](Cc2ccccc2)NC(=O)[C@H](CCC(=O)O)NC(=O)[C@H](Cc2c[nH]c3ccccc23)NC(=O)[C@H](CC(=O)O)NC1=O
notes: cyclo(-P1..P8-template-)
B2: Ex. 13 (peptide)
peptide: cyclo(FE[Trp(6-Cl)]LDWAF[dP]P)
SMILES: CC(C)C[C@@H]1NC(=O)[C@H](Cc2c[nH]c3cc(Cl)ccc23)NC(=O)[C@H](CCC(=O)O)NC(=O)[C@H](Cc2ccccc2)NC(=O)[C@@H]2CCCN2C(=O)[C@H]2CCCN2C(=O)[C@H](Cc2ccccc2)NC(=O)[C@H](C)NC(=O)[C@H](Cc2c[nH]c3ccccc23)NC(=O)[C@H](CC(=O)O)NC1=O
notes: cyclo(-P1..P8-template-)
B3: Ex. 2 (peptide)
peptide: cyclo(FEWLAWEF[dP][Hyp])
SMILES: CC(C)C[C@@H]1NC(=O)[C@H](Cc2c[nH]c3ccccc23)NC(=O)[C@H](CCC(=O)O)NC(=O)[C@H](Cc2ccccc2)NC(=O)[C@@H]2C[C@@H](O)CN2C(=O)[C@H]2CCCN2C(=O)[C@H](Cc2ccccc2)NC(=O)[C@H](CCC(=O)O)NC(=O)[C@H](Cc2c[nH]c3ccccc23)NC(=O)[C@H](C)NC1=O
notes: cyclo(-P1..P8-template-)
B4: Ex. 19 (peptide)
peptide: cyclo(FEWLDWEF[dP]P)
SMILES: CC(C)C[C@@H]1NC(=O)[C@H](Cc2c[nH]c3ccccc23)NC(=O)[C@H](CCC(=O)O)NC(=O)[C@H](Cc2ccccc2)NC(=O)[C@@H]2CCCN2C(=O)[C@H]2CCCN2C(=O)[C@H](Cc2ccccc2)NC(=O)[C@H](CCC(=O)O)NC(=O)[C@H](Cc2c[nH]c3ccccc23)NC(=O)[C@H](CC(=O)O)NC1=O
notes: cyclo(-P1..P8-template-)
B5: Ex. 21 (peptide)
peptide: cyclo(FEWLAWYF[dP]P)
SMILES: CC(C)C[C@@H]1NC(=O)[C@H](Cc2c[nH]c3ccccc23)NC(=O)[C@H](CCC(=O)O)NC(=O)[C@H](Cc2ccccc2)NC(=O)[C@@H]2CCCN2C(=O)[C@H]2CCCN2C(=O)[C@H](Cc2ccccc2)NC(=O)[C@H](Cc2ccc(O)cc2)NC(=O)[C@H](Cc2c[nH]c3ccccc23)NC(=O)[C@H](C)NC1=O
notes: cyclo(-P1..P8-template-)
B6: Ex. 20 (peptide)
peptide: cyclo(FEWLAWEE[dP]P)
SMILES: CC(C)C[C@@H]1NC(=O)[C@H](Cc2c[nH]c3ccccc23)NC(=O)[C@H](CCC(=O)O)NC(=O)[C@H](Cc2ccccc2)NC(=O)[C@@H]2CCCN2C(=O)[C@H]2CCCN2C(=O)[C@H](CCC(=O)O)NC(=O)[C@H](CCC(=O)O)NC(=O)[C@H](Cc2c[nH]c3ccccc23)NC(=O)[C@H](C)NC1=O
notes: cyclo(-P1..P8-template-)
B7: Ex. 24 (peptide)
peptide: cyclo(FEWLAWLF[dP]P)
SMILES: CC(C)C[C@@H]1NC(=O)[C@H](Cc2c[nH]c3ccccc23)NC(=O)[C@H](CCC(=O)O)NC(=O)[C@H](Cc2ccccc2)NC(=O)[C@@H]2CCCN2C(=O)[C@H]2CCCN2C(=O)[C@H](Cc2ccccc2)NC(=O)[C@H](CC(C)C)NC(=O)[C@H](Cc2c[nH]c3ccccc23)NC(=O)[C@H](C)NC1=O
notes: cyclo(-P1..P8-template-)
B8: Ex. 11 (peptide)
peptide: cyclo(FEWYAWEF[dP]P)
SMILES: C[C@@H]1NC(=O)[C@H](Cc2ccc(O)cc2)NC(=O)[C@H](Cc2c[nH]c3ccccc23)NC(=O)[C@H](CCC(=O)O)NC(=O)[C@H](Cc2ccccc2)NC(=O)[C@@H]2CCCN2C(=O)[C@H]2CCCN2C(=O)[C@H](Cc2ccccc2)NC(=O)[C@H](CCC(=O)O)NC(=O)[C@H](Cc2c[nH]c3ccccc23)NC1=O
notes: cyclo(-P1..P8-template-)
B9: Ex. 17 (peptide)
peptide: cyclo(FEALDWEF[dP]P)
SMILES: CC(C)C[C@@H]1NC(=O)[C@H](C)NC(=O)[C@H](CCC(=O)O)NC(=O)[C@H](Cc2ccccc2)NC(=O)[C@@H]2CCCN2C(=O)[C@H]2CCCN2C(=O)[C@H](Cc2ccccc2)NC(=O)[C@H](CCC(=O)O)NC(=O)[C@H](Cc2c[nH]c3ccccc23)NC(=O)[C@H](CC(=O)O)NC1=O
notes: cyclo(-P1..P8-template-)
B10: Ex. 27 (peptide)
peptide: cyclo(MEWLDWEF[dP]P)
SMILES: CSCC[C@@H]1NC(=O)[C@@H]2CCCN2C(=O)[C@H]2CCCN2C(=O)[C@H](Cc2ccccc2)NC(=O)[C@H](CCC(=O)O)NC(=O)[C@H](Cc2c[nH]c3ccccc23)NC(=O)[C@H](CC(=O)O)NC(=O)[C@H](CC(C)C)NC(=O)[C@H](Cc2c[nH]c3ccccc23)NC(=O)[C@H](CCC(=O)O)NC1=O
notes: cyclo(-P1..P8-template-)
B11: Ex. 23 (peptide)
peptide: cyclo(EEWLAWEF[dP]P)
SMILES: CC(C)C[C@@H]1NC(=O)[C@H](Cc2c[nH]c3ccccc23)NC(=O)[C@H](CCC(=O)O)NC(=O)[C@H](CCC(=O)O)NC(=O)[C@@H]2CCCN2C(=O)[C@H]2CCCN2C(=O)[C@H](Cc2ccccc2)NC(=O)[C@H](CCC(=O)O)NC(=O)[C@H](Cc2c[nH]c3ccccc23)NC(=O)[C@H](C)NC1=O
notes: cyclo(-P1..P8-template-)
B12: Ex. 7 (peptide)
peptide: cyclo(FEWGAWEF[dP]P)
SMILES: C[C@@H]1NC(=O)CNC(=O)[C@H](Cc2c[nH]c3ccccc23)NC(=O)[C@H](CCC(=O)O)NC(=O)[C@H](Cc2ccccc2)NC(=O)[C@@H]2CCCN2C(=O)[C@H]2CCCN2C(=O)[C@H](Cc2ccccc2)NC(=O)[C@H](CCC(=O)O)NC(=O)[C@H](Cc2c[nH]c3ccccc23)NC1=O
notes: cyclo(-P1..P8-template-)
B13: Ex. 16 (peptide)
peptide: cyclo(FEWLDWEM[dP]P)
SMILES: CSCC[C@@H]1NC(=O)[C@H](CCC(=O)O)NC(=O)[C@H](Cc2c[nH]c3ccccc23)NC(=O)[C@H](CC(=O)O)NC(=O)[C@H](CC(C)C)NC(=O)[C@H](Cc2c[nH]c3ccccc23)NC(=O)[C@H](CCC(=O)O)NC(=O)[C@H](Cc2ccccc2)NC(=O)[C@@H]2CCCN2C(=O)[C@H]2CCCN2C1=O
notes: cyclo(-P1..P8-template-)
B14: Ex. 8 (peptide)
peptide: cyclo(FEWLGWEF[dP]P)
SMILES: CC(C)C[C@@H]1NC(=O)[C@H](Cc2c[nH]c3ccccc23)NC(=O)[C@H](CCC(=O)O)NC(=O)[C@H](Cc2ccccc2)NC(=O)[C@@H]2CCCN2C(=O)[C@H]2CCCN2C(=O)[C@H](Cc2ccccc2)NC(=O)[C@H](CCC(=O)O)NC(=O)[C@H](Cc2c[nH]c3ccccc23)NC(=O)CNC1=O
notes: cyclo(-P1..P8-template-)
B15: Ex. 12 (peptide)
peptide: cyclo(FEWLYWEF[dP]P)
SMILES: CC(C)C[C@@H]1NC(=O)[C@H](Cc2c[nH]c3ccccc23)NC(=O)[C@H](CCC(=O)O)NC(=O)[C@H](Cc2ccccc2)NC(=O)[C@@H]2CCCN2C(=O)[C@H]2CCCN2C(=O)[C@H](Cc2ccccc2)NC(=O)[C@H](CCC(=O)O)NC(=O)[C@H](Cc2c[nH]c3ccccc23)NC(=O)[C@H](Cc2ccc(O)cc2)NC1=O
notes: cyclo(-P1..P8-template-)
B16: Ex. 22 (peptide)
peptide: cyclo(FLWLAWEF[dP]P)
SMILES: CC(C)C[C@@H]1NC(=O)[C@H](Cc2c[nH]c3ccccc23)NC(=O)[C@H](CC(C)C)NC(=O)[C@H](Cc2ccccc2)NC(=O)[C@@H]2CCCN2C(=O)[C@H]2CCCN2C(=O)[C@H](Cc2ccccc2)NC(=O)[C@H](CCC(=O)O)NC(=O)[C@H](Cc2c[nH]c3ccccc23)NC(=O)[C@H](C)NC1=O
notes: cyclo(-P1..P8-template-)
B17: Ex. 9 (peptide)
peptide: cyclo(FEWLAWE[Glu(cHx)][dP]P)
SMILES: CC(C)C[C@@H]1NC(=O)[C@H](Cc2c[nH]c3ccccc23)NC(=O)[C@H](CCC(=O)O)NC(=O)[C@H](Cc2ccccc2)NC(=O)[C@@H]2CCCN2C(=O)[C@H]2CCCN2C(=O)[C@H](CCC(=O)OC2CCCCC2)NC(=O)[C@H](CCC(=O)O)NC(=O)[C@H](Cc2c[nH]c3ccccc23)NC(=O)[C@H](C)NC1=O
notes: cyclo(-P1..P8-template-)
B18: Ex. 18 (peptide)
peptide: cyclo(FE[Trp(6-Cl)]LDAEF[dP]P)
SMILES: CC(C)C[C@@H]1NC(=O)[C@H](Cc2c[nH]c3cc(Cl)ccc23)NC(=O)[C@H](CCC(=O)O)NC(=O)[C@H](Cc2ccccc2)NC(=O)[C@@H]2CCCN2C(=O)[C@H]2CCCN2C(=O)[C@H](Cc2ccccc2)NC(=O)[C@H](CCC(=O)O)NC(=O)[C@H](C)NC(=O)[C@H](CC(=O)O)NC1=O
notes: cyclo(-P1..P8-template-)

Each binder was assayed against T1, NCoA-1 (assay: competition fluorescence polarization; displacement of FluoSTAT6 from NCoA-1).
Protocol: The mixtures were shaken thoroughly. Fluorescence polarization was measured on a SPECTRAmax M5 spectrometer (Molecular device) following 5-30 min incubation at room temperature. FluoSTAT6 was excited at 490 nm and emission polarization was detected at 525 nm. 40 intensity measurements were collected for each well, 20 at horizontal position of the dynamic polarizer, 20 at parallel position. As the fraction of FluoSTAT6 bound to NCoA-1 is correlated to the fluorescence polarization (FP), after normalization, the fraction of bound FluoSTAT6 (B) was determined, and the KD was calculated according to B=[(1+P/R+KD/R)−((1+P/R+KD/R)²−4P/R)^{0.5}]/2, wherein P is the total probe concentration, R the total protein concentration and KD the dissociation constant (M. H. Roehrl, J. Y. Wang, G. Wagner, Biochemistry 2004, 3, 16056).
To determine the Kᵢ values of potential inhibitors of the STAT6/NCoA-1 interaction (competition fluorescence polarization) the compounds (dilution series from 0 to 100 μM final concentration) dissolved in HEPES buffer (10 mM HEPES, 150 mM NaCl, 3.4 mM EDTA, 0.1% BSA) were dispensed in a black 96 well plate (Greiner) and FluoSTAT6 (200 nM final concentration) in HEPES buffer was added. The mixture was completed by a HEPES buffer solution of NCoA-1 (1 μM final concentration) and processed as described above. STAT6Y (C-terminal tyrosine extended STAT6 794-814 peptide) was used as a positive control. As the total fluorescence intensity of FluoSTAT6 remains similar for all samples, the fraction of peptide bound to NCoA-1 is correlated to the fluorescence polarization.
Following normalization data were fitted with IGORpro Software® (WaveMetrics, Lake Oswego, Oreg., USA) to a sigmoid equation to determine IC₅₀ values.

Ki	Binder
1.4 µM	B1
2 µM	B2
4.7 µM	B3
3.7 µM	B4
19.6 µM	B5
11.5 µM	B6
24.3 µM	B7
8.7 µM	B8
15.8 µM	B9
7.9 µM	B10
16.4 µM	B11
7.1 µM	B12
6.6 µM	B13
3 µM	B14
9.3 µM	B15
8.9 µM	B16
1.5 µM	B17
3.3 µM	B18
